Results published in patent publication US20250066745A1, “MUTANTS AND USE THEREOF” (BGI SHENZHEN, priority 2021, published 2025).

How the values were obtained:
Type in all cases: biochemical
Set-up in all cases: key to Activity of mutant relative to wild-type Gaussia luciferase without the signal peptide: ratio of mutant luminescence intensity to wild-type Gaussia luciferase
[1] = Luminescence activity assay of purified Gaussia luciferase mutants on coelenterazine; details: Substrate CTZ (Table 16)
Outline: (§1)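 Readout: luminescence intensity, as ratio to signal-peptide-free wild-type enzyme. Enzyme 1 μg/mL, substrate 100 μM stock, 10 μL + 90 μL; buffer 50 mM Tris-HCl pH 8.0, 100 mM NaCl, 0.1% Tween-20.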

[2] = Luminescence activity assay of purified Gaussia luciferase mutants on coelenterazine derivative ZS2; details: Substrate ZS2 (Table 16)
Outline: as §1

[3] = Luminescence activity assay of purified Gaussia luciferase mutants on fluoro-coelenterazine; details: Substrate f-CTZ (Table 16)
Procedure: In this Example, the protein concentration was determined with a BCA quantitative kit (Thermo Scientific™ Pierce™ BCA Protein Assay Kit) accurately. The purified luciferase obtained in Example 5 was diluted with diluent (50 mM Tris-HCl, pH 8.0, 100 mM NaCl, 0.1% (v/v) Tween-20) to 1 μg/mL. The diluted luciferase, taken for 10 μL, was moved into a black 96-well plate, then added with 90 μL of the substrates coelenterazine, fluoro-coelenterazine or coelenterazine derivative ZS2 (purchased from Biolab) which was diluted into 100 μM with the same diluent, and the luminescence intensity of the plate was read with a self-luminescence module of a microplate reader. The mutation site of the mutant, the measured luminescence intensity, the ratio of luminescence intensities of the advantageous mutants to the wild-type Gaussia luciferase without the signal peptide having the sequence shown in SEQ ID NO: 3 are shown in Table 15. The results of catalytic activity assay of the advantageous mutants relative to the wild-type Gaussia luciferase without the signal peptide having the sequence shown in SEQ ID NO: 3 on substrate coelenterazine are shown in FIG. 6. […] The results of catalytic activity assay of the advantageous mutants relative to the wild-type Gaussia luciferase without the signal peptide having the sequence shown in SEQ ID NO: 3 on substrate fluoro-coelenterazine are shown in FIG. 7.
The new mutant library constructed in Example 7 was screened and tested for substrate specificity. Expression and purification schemes were the same as that in Example 5, and the activity assay scheme was the same as that in Example 6. The respective catalytic activities of combinatorial mutants on coelenterazine, fluoro-coelenterazine or coelenterazine derivative ZS2, and coelenterazine derivative ZS26 (purchased from BIOLAB) were assayed, and comparisons among the substrate specificities of the combinatorial mutants were based on the ratios of catalytic activities on two corresponding substrates.

Molecule | Activity of mutant relative to wild-type Gaussia luciferase without the signal peptide [1] | Activity of mutant relative to wild-type Gaussia luciferase without the signal peptide [2] | Activity of mutant relative to wild-type Gaussia luciferase without the signal peptide [3]
F26I N27D V29D A30G A32E S33G A36T L40S del117-119 D139H: Gaussia luciferase mutant (protein, SIGNAL (1)..(17), Gaussia luciferase mutant) MGVKVLFALICIAVAEAKPTENNEDIDIDGVEGNFTTTDSDADRGKLPGKKLPLEVLKEMEANARKAGCTRGCLICLSHIKCTPKMKKFIPGRCHTYEGDKESAQGGIGEAIVDIPGFKDLEPMEQFIAQVDLCVHCTTGCLKGLANVQCSDLLKKWLPQRCATFASKIQGQVDKIKGAGGD | 0.043 | 0.010 | –
F26R N27D V29D A30G A32D S33N T37A L40P: Gaussia luciferase mutant (protein, SIGNAL (1)..(17), Gaussia luciferase mutant) MGVKVLFALICIAVAEAKPTENNEDRDIDGVDNNFAATDPDADRGKLPGKKLPLEVLKEMEANARKAGCTRGCLICLSHIKCTPKMKKFIPGRCHTYEGDKESAQGGIGEAIVDIPEIPGFKDLEPMEQFIAQVDLCVDCTTGCLKGLANVQCSDLLKKWLPQRCATFASKIQGQVDKIKGAGGD | 0.031 | 0.031 | 0.049
F26D N27H V29K A30G A32G S33L T37L L40R: Gaussia luciferase mutant (protein, SIGNAL (1)..(17), Gaussia luciferase mutant) MGVKVLFALICIAVAEAKPTENNEDDHIKGVGLNFALTDRDADRGKLPGKKLPLEVLKEMEANARKAGCTRGCLICLSHIKCTPKMKKFIPGRCHTYEGDKESAQGGIGEAIVDIPEIPGFKDLEPMEQFIAQVDLCVDCTTGCLKGLANVQCSDLLKKWLPQRCATFASKIQGQVDKIKGAGGD | 0.037 | 0.381 | –
F26R N27D V29E A30G V31I A32D S33N A36N T37A L40R: Gaussia luciferase mutant (protein, SIGNAL (1)..(17), Gaussia luciferase mutant) MGVKVLFALICIAVAEAKPTENNEDRDIEGIDNNFNATDRDADRGKLPGKKLPLEVLKEMEANARKAGCTRGCLICLSHIKCTPKMKKFIPGRCHTYEGDKESAQGGIGEAIVDIPEIPGFKDLEPMEQFIAQVDLCVDCTTGCLKGLANVQCSDLLKKWLPQRCATFASKIQGQVDKIKGAGGD | 0.053 | 0.044 | 0.067
F26L N27D A30D V31L A32V S33N A36N T37A L40S: Gaussia luciferase mutant (protein, SIGNAL (1)..(17), Gaussia luciferase mutant) MGVKVLFALICIAVAEAKPTENNEDLDIVDLVNNFNATDSDADRGKLPGKKLPLEVLKEMEANARKAGCTRGCLICLSHIKCTPKMKKFIPGRCHTYEGDKESAQGGIGEAIVDIPEIPGFKDLEPMEQFIAQVDLCVDCTTGCLKGLANVQCSDLLKKWLPQRCATFASKIQGQVDKIKGAGGD | 0.799 | 1.802 | –
F26L N27D V29P A30G V31I A32G S33A A36T T37C L40E I112T: Gaussia luciferase mutant (protein, SIGNAL (1)..(17), Gaussia luciferase mutant) MGVKVLFALICIAVAEAKPTENNEDLDIPGIGANFTCTDEDADRGKLPGKKLPLEVLKEMEANARKAGCTRGCLICLSHIKCTPKMKKFIPGRCHTYEGDKESAQGGIGEATVDIPEIPGFKDLEPMEQFIAQVDLCVDCTTGCLKGLANVQCSDLLKKWLPQRCATFASKIQGQVDKIKGAGGD | 0.001 | 0.395 | –
F26I A30D A32V S33G A36D T37K L40V: Gaussia luciferase mutant (protein, SIGNAL (1)..(17), Gaussia luciferase mutant) MGVKVLFALICIAVAEAKPTENNEDINIVDVVGNFDKTDVDADRGKLPGKKLPLEVLKEMEANARKAGCTRGCLICLSHIKCTPKMKKFIPGRCHTYEGDKESAQGGIGEAIVDIPEIPGFKDLEPMEQFIAQVDLCVDCTTGCLKGLANVQCSDLLKKWLPQRCATFASKIQGQVDKIKGAGGD | 0.636 | 2.392 | –
F26I N27D V29S A30G V31L A32V S33D A36V T37E L40G: Gaussia luciferase mutant (protein, SIGNAL (1)..(17), Gaussia luciferase mutant) MGVKVLFALICIAVAEAKPTENNEDIDISGLVDNFVETDGDADRGKLPGKKLPLEVLKEMEANARKAGCTRGCLICLSHIKCTPKMKKFIPGRCHTYEGDKESAQGGIGEAIVDIPEIPGFKDLEPMEQFIAQVDLCVDCTTGCLKGLANVQCSDLLKKWLPQRCATFASKIQGQVDKIKGAGGD | 0.788 | 2.094 | –
F26I N27H V29G A32G S33D A36G T37L L40I: Gaussia luciferase mutant (protein, SIGNAL (1)..(17), Gaussia luciferase mutant) MGVKVLFALICIAVAEAKPTENNEDIHIGAVGDNFGLTDIDADRGKLPGKKLPLEVLKEMEANARKAGCTRGCLICLSHIKCTPKMKKFIPGRCHTYEGDKESAQGGIGEAIVDIPEIPGFKDLEPMEQFIAQVDLCVDCTTGCLKGLANVQCSDLLKKWLPQRCATFASKIQGQVDKIKGAGGD | 0.055 | 0.479 | –

Second part, the molecule after the results:

Activity of mutant relative to wild-type Gaussia luciferase without the signal peptide [1] | Activity of mutant relative to wild-type Gaussia luciferase without the signal peptide [2] | Activity of mutant relative to wild-type Gaussia luciferase without the signal peptide [3] | Molecule
0.000 | 0.191 | – | F26L N27D V29A V31L A32D S33N T37E L40T: Gaussia luciferase mutant (protein, SIGNAL (1)..(17), Gaussia luciferase mutant) MGVKVLFALICIAVAEAKPTENNEDLDIAALDNNFAETDTDADRGKLPGKKLPLEVLKEMEANARKAGCTRGCLICLSHIKCTPKMKKFIPGRCHTYEGDKESAQGGIGEAIVDIPEIPGFKDLEPMEQFIAQVDLCVDCTTGCLKGLANVQCSDLLKKWLPQRCATFASKIQGQVDKIKGAGGD
0.726 | 1.989 | – | F26L N27D V29D A30G S33N A36I T37D L40R: Gaussia luciferase mutant (protein, SIGNAL (1)..(17), Gaussia luciferase mutant) MGVKVLFALICIAVAEAKPTENNEDLDIDGVANNFIDTDRDADRGKLPGKKLPLEVLKEMEANARKAGCTRGCLICLSHIKCTPKMKKFIPGRCHTYEGDKESAQGGIGEAIVDIPEIPGFKDLEPMEQFIAQVDLCVDCTTGCLKGLANVQCSDLLKKWLPQRCATFASKIQGQVDKIKGAGGD
1.120 | 0.000 | – | F26I V29F A30G A32E S33D A36N T37D L40T: Gaussia luciferase mutant (protein, SIGNAL (1)..(17), Gaussia luciferase mutant) MGVKVLFALICIAVAEAKPTENNEDINIFGVEDNFNDTDTDADRGKLPGKKLPLEVLKEMEANARKAGCTRGCLICLSHIKCTPKMKKFIPGRCHTYEGDKESAQGGIGEAIVDIPEIPGFKDLEPMEQFIAQVDLCVDCTTGCLKGLANVQCSDLLKKWLPQRCATFASKIQGQVDKIKGAGGD
0.003 | 1.203 | – | F26G N27Y A30D V31L A32V S33R A36M T37E L40G: Gaussia luciferase mutant (protein, SIGNAL (1)..(17), Gaussia luciferase mutant) MGVKVLFALICIAVAEAKPTENNEDGYIVDLVRNFMETDGDADRGKLPGKKLPLEVLKEMEANARKAGCTRGCLICLSHIKCTPKMKKFIPGRCHTYEGDKESAQGGIGEAIVDIPEIPGFKDLEPMEQFIAQVDLCVDCTTGCLKGLANVQCSDLLKKWLPQRCATFASKIQGQVDKIKGAGGD
